The target of this experiment is Labeled Vip3Aa (MST) (Bacillus thuringiensis). The experiment in a line: MST; labeled Vip3Aa 10 nM, GST-FGFR-N titrated 0.3 nM to 10 µM; 25 mM HEPES pH 7.5, 0.05% Tween-20, 150 mM NaCl; 25 °C; Hill equation fit; three independent experiments.

Consider “GST-FGFR-N (extracellular regions of Sf-FGFR, aa 27-415, with a GST tag) (domain or fragment)”, for which the Kd – broadly, the constant that tells how readily two partners part at equilibrium – came to 1430 nM.

For the origin of these results see article PMC6315849.
